According to US11707511B2, “Vaccine compositions and methods of using the same” (The Board of Supervisors of Louisiana State University and …, priority 2017, dated 2023):

B1: 10E7E2: IgG1 mAb of hybridoma 10E7E2, specific for GPV-P3; VH SEQ ID NO: 72, VL SEQ ID NO: 74 (antibody, V domains shown)
VH: QVQLKQSGPGLVQPSQSLSITCTVSGFSLTSYGVHWVRQSPGKGLEWLGVIWSGGTTDYNAAFISRLSISKDNSKSQVFFKMNSLQANDTAIYYCARGGHRGFAYWGQGTLVTVSA
VL: DIVMTQSHKFMSTSVGDRVSITCKASQDVGTAVAWYQQKPGQSPKLLIYWASTRHTGVPDRFTGSGSGTDFTLTISNVQSEDLADYFCQQYSSYPLTFGAGTKLELK
B2: 1D4H5: IgG1 mAb of hybridoma 1D4H5, specific for GPV-M1; VH SEQ ID NO: 64, VL SEQ ID NO: 66 (antibody, V domains shown)
VH: MYLGLNCVFIVFLLKGVQSEVKLEESGGGLVQPGGSMKLSCVASGFTFSNYWMNWVRQSPEKGLEWVAEIRLKSNNYATHYAESVKGRFTISSDDSKSSVYLQMNNLRAEDTGIYYCSTGNYWGQGTTLTVSS
VL: MDFQMQIISLLLISVTVIVSNGEIVLTQSPTTMAASPGEKITITCSASSTISSNYLHWYQQKPGFSPKLLIYRTSNLASGVPARFSGSGSGTSYSLTIGTMEAEDVATYYCQQGSTISRTFGSGTKLEIK

Tested on: C. albicans 3153A
Test: Passive transfer of mAbs or mAb cocktails i.p. before lethal i.v. challenge, mouse model of human disseminated candidiasis
Format: in vivo, Candida albicans
Conditions: for Protection against C. albicans / Protection against C. albicans (grade word): Table 6, single mAb 0.5 ml i.p. 4 h before i.v. 5×10^5 C. albicans 3153A, BALB/c mice; for Protection against Candida spp in mouse model: Against C. albicans / Protection against Candida spp in mouse model: Against C. albicans (grade word): Table 9; for Protection of adsorbed mAb / Protection / Protection (grade word): Table 15; for Protection of adsorbed mAb: mAb removed by absorption with Candida cells before transfer; for Protection / Protection (grade word): single universal peptide-specific mAb, C. albicans
Method: Passive transfer of MAbs by intraperitoneal (i.p.) route. The preventive effect of peptide-specific mAbs listed in Table 3 and Table 4 in naïve mice was examined by passive transfer experiments. […] For testing, mice received 0.5 ml of each mAb or 1 ml of two mAbs in combination (0.5 ml of each) intraperitoneally. […] The negative control materials tested in mice were single mAb or DPBS. Control mice received 0.5 ml of the DPBS diluents or single mAb treatment. For each condition, 6- to 8-week-old female BALB/c mice (NCI) were given 0.5 ml of test mAb, or 1 ml two mAb cocktails or control materials intraperitoneally, followed 4 h later by 0.1 ml intravenously of defined lethal dose of yeast cells per milliliter of DPBS. Mice were divided into groups with five mice each and three independent experiments were carried out. In some experiments, mice were given the same dose of mAbs or control materials on every other day post-challenge for two weeks, as compared to the protective efficacy of mAb in combinations. All mice were sacrificed on day 50. For animal groups that were challenged non-albicans candida species, determined optimal challenge doses were applied for each candida strain.
The hybridoma clones that produce the universal peptide specific mAbs listed above were generated from mice vaccinated with peptide-pulsed dendritic cell (DC) preparation as described previously (6). The isotype of mAb was determined with a Mouse Monoclonal Antibody Isotyping Kit (Pierce, USA). […] In detail, BALB/c mice were given an i.p dose of each mAb four hours before hematogenous challenged with a lethal dose of C. albicans3153A cells. […] Importantly, passive protection was prevented by removal of the mAbs by absorption with Candida cells before transfer, which provided strong additional evidence for the protection being due to the mAb.
The three cell wall proteins were selected because of expression during human candidiasis and cell wall association, and included fructose-bisphosphate aldolase (Fba); methyltetrahydropteroyltriglutamate-homocysteine methyltransferase (Met6); hyphal wall protein-1 (Hwp1). The hybridoma clones listed at Table 5, which produce the peptide specific mAbs, were generated from mice vaccinated with peptide-pulsed dendritic cell (DC) preparation as described previously (6). The isotype of mAb was determined with a Mouse Monoclonal Antibody Isotyping Kit (Pierce, USA). […] Importantly, passive protection was prevented by removal of the mAbs by absorption with Candida cells before transfer, which provided strong additional evidence for the protection being due to the mAb).
The preventive effect of each universal peptide-specific mAb was examined by passive transfer experiments. […] For testing, 5 mice of each tested group received 0.5 ml of each mAb intraperitoneally. The negative control materials tested in mice were mAbs absorbed with C. albicans yeast cells (3153A) and DPBS. Control mice received 0.5 ml of the DPBS diluents or adsorbed mAb solution. For each condition, 6- to 8-week-old female BALB/c mice (NCI) were given 0.5 ml of test mAb, or control materials intraperitoneally, followed 4 h later by 0.1 ml intravenously of a suspension containing lethal dose of Candida cells per milliliter of DPBS. Mice were divided into groups with five mice each and three independent experiments were carried out. We have developed neutropenic murine models of disseminated infection by C. glabrata, C. tropicalis and C. parapsilosis. To induce neutropenia, naïve mice received a 200 mg/kg dose of cyclophosphamide (CY) by i.p. on day −3. Prolonged neutropenia were maintained for 30-50 days by giving each animal a 150 mg/kg dose of CY by i.p. every 10 days after infection.

Molecule	Protection against C. albicans	Protection against C. albicans (grade word)	Protection against Candida spp in mouse model: Against C. albicans	Protection against Candida spp in mouse model: Against C. albicans (grade word)	Protection of adsorbed mAb	Protection	Protection (grade word)
B1	(80-100%)	High	(80-100%	High	None	(80-100%)	High
B2	(70-80%)	High	(70-80%)	High	None	(70-80%)	High
